Results reported in publication PMC6152271.

Target: recombinant human soluble catechol-O-methyltransferase (human) (UniProt P21964)

IC50 of inhibition of COMT activity (methyl transfer from 14C-SAM to DBA): 1.6 µM
Substance: bovine lactoferrin (natural protein)
